In PMC5932227:

Biological target: cynomolgus OX40, native, on activated cynomolgus CD4 T cells (cynomolgus (endogenous in primary CD4 T cells))
Assay: flow cytometry on cells

Kd: 0.024 nM
Substance: MEDI6383, human OX40 ligand IgG4P Fc fusion protein
